According to patent publication US20260242735A1 (UNIVERSIT T BASEL, published 2026):

B1: Refmab #3 (antibody, human IgG1, V domains shown)
VH: QVQLVQSGAEVKKPGSSVKVSCKASGYTFTDYNMHWVRQAPGQGLEWIGYIYPYNGGTGYNQKFKSKATITADESTNTAYMELSSLRSEDTAVYYCARGRPAMDYWGQGTLVTVSS
VL: DIQMTQSPSSLSASVGDRVTITCRASESVDNYGISFMNWFQQKPGKAPKLLIYAASNQGSGVPSRFSGSGSGTDFTLTISSLQPDDFATYYCQQSKEVPWTFGQGTKVEIK
B2: Refmab #4 (antibody, human IgG1, V domains shown)
VH: QVQLVQSGAEVKKPGESVKVSCKASGYTFTNYGMNWVKQAPGQGLEWMGWINTYTGEPTYADKFQGRVTMTTDTSTSTAYMEIRNLGGDDTAVYYCARWSWSDGYYVYFDYWGQGTSVTVSS
VL: DIVMTQSPDSLTVSLGERTTINCKSSQSVLDSSTNKNSLAWYQQKPGQPPKLLLSWASTRESGIPDRFSGSGSGTDFTLTIDSPQPEDSATYYCQQSAHFPITFGQGTRLEIK

Legend:
Assay in all cases: BLI Octet, IgG captured on AHC, CD33 analyte;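 also: CD33 variants and wild type run as analyte at 5, 50 and 500 nM, 700 s association then 1200 s dissociation, buffer-only reference subtracted, global 1:1 fit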
[1] = biological target: human CD33 extracellular region F21H (human, UniProt P20138 22-259)
[2] = biological target: human CD33 extracellular region N20V (human, UniProt P20138 21-259)
[3] = biological target: human CD33 extracellular region Q24R (human, UniProt P20138 18-259)
[4] = biological target: human CD33 extracellular region Y50H_Y49H (human, UniProt P20138 18-259)
[5] = biological target: human CD33 extracellular region W22K (human, UniProt P20138 18-259)
[6] = biological target: human CD33 extracellular region F21Q (human, UniProt P20138 22-259)
[7] = biological target: human CD33 extracellular region W22H (human, UniProt P20138 18-259)
[8] = biological target: human CD33 extracellular region R119A (human, UniProt P20138 18-259)
[9] = biological target: human CD33 extracellular region Y50H (human, UniProt P20138 18-259)
[10] = biological target: human CD33 extracellular region W22T (human, UniProt P20138 18-259)
[11] = biological target: human CD33 extracellular region F21S (human, UniProt P20138 22-259)
[12] = biological target: human CD33 extracellular region P48S (human, UniProt P20138 18-259)
[13] = biological target: human CD33 extracellular region F43S (human, UniProt P20138 18-259)
[14] = biological target: human CD33 extracellular region N20S (human, UniProt P20138 21-259)
[15] = biological target: human CD33 extracellular region P48D (human, UniProt P20138 18-259)
[16] = biological target: human CD33 extracellular region F21I (human, UniProt P20138 22-259)
[17] = biological target: human CD33 extracellular region F21S_W22R (human, UniProt P20138 23-259)
[18] = biological target: T1, human CD33 extracellular region, wild type (human, UniProt P20138 18-259)
T1 construct: also called WT; CD33 wt

[19] = biological target: human CD33 extracellular region F21M (human, UniProt P20138 22-259)
[20] = biological target: human CD33 extracellular region Y50L (human, UniProt P20138 18-259)
[21] = biological target: human CD33 extracellular region W22E (human, UniProt P20138 18-259)
Sequence of human CD33 extracellular region W22E (P20138 other isoform, or with tags, fused parts or gaps W22E W22E): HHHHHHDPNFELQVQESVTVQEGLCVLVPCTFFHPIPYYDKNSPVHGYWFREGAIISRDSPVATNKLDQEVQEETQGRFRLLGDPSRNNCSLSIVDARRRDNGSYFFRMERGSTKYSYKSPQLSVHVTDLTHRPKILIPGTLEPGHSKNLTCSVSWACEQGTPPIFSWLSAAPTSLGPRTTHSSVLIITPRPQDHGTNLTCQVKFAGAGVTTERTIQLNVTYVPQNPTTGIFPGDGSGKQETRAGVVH

Sequence of human CD33 extracellular region F21M (P20138 other isoform, or with tags, fused parts or gaps F21M F21M): as the sequence (P20138 other isoform, or with tags, fused parts or gaps W22E W22E) above, with F10M, E11W counted along it
Sequence of human CD33 extracellular region Q24R (P20138 other isoform, or with tags, fused parts or gaps Q24R Q24R): as the sequence (P20138 other isoform, or with tags, fused parts or gaps W22E W22E) above, with E11W, Q13R counted along it
T1 sequence (P20138 other isoform, or with tags, fused parts or gaps): as the sequence (P20138 other isoform, or with tags, fused parts or gaps W22E W22E) above, with E11W counted along it
Sequence of human CD33 extracellular region F21S (P20138 other isoform, or with tags, fused parts or gaps F21S F21S): as the sequence (P20138 other isoform, or with tags, fused parts or gaps W22E W22E) above, with F10S, E11W counted along it
Sequence of human CD33 extracellular region P48S (P20138 other isoform, or with tags, fused parts or gaps P48S P48S): as the sequence (P20138 other isoform, or with tags, fused parts or gaps W22E W22E) above, with E11W, P37S counted along it
Sequence of human CD33 extracellular region N20V (P20138 other isoform, or with tags, fused parts or gaps N20V N20V): as the sequence (P20138 other isoform, or with tags, fused parts or gaps W22E W22E) above, with N9V, E11W counted along it
Sequence of human CD33 extracellular region P48D (P20138 other isoform, or with tags, fused parts or gaps P48D P48D): as the sequence (P20138 other isoform, or with tags, fused parts or gaps W22E W22E) above, with E11W, P37D counted along it
Sequence of human CD33 extracellular region F43S (P20138 other isoform, or with tags, fused parts or gaps F43S F43S): as the sequence (P20138 other isoform, or with tags, fused parts or gaps W22E W22E) above, with E11W, F32S counted along it
Sequence of human CD33 extracellular region N20S (P20138 other isoform, or with tags, fused parts or gaps N20S N20S): as the sequence (P20138 other isoform, or with tags, fused parts or gaps W22E W22E) above, with N9S, E11W counted along it
Sequence of human CD33 extracellular region Y50H_Y49H (P20138 other isoform, or with tags, fused parts or gaps Y50H Y49H Y50H Y49H): as the sequence (P20138 other isoform, or with tags, fused parts or gaps W22E W22E) above, with E11W, Y38H, Y39H counted along it
Sequence of human CD33 extracellular region W22H (P20138 other isoform, or with tags, fused parts or gaps W22H W22H): as the sequence (P20138 other isoform, or with tags, fused parts or gaps W22E W22E) above, with E11H counted along it
Sequence of human CD33 extracellular region F21I (P20138 other isoform, or with tags, fused parts or gaps F21I F21I): as the sequence (P20138 other isoform, or with tags, fused parts or gaps W22E W22E) above, with F10I, E11W counted along it
Sequence of human CD33 extracellular region R119A (P20138 other isoform, or with tags, fused parts or gaps R119A R119A): as the sequence (P20138 other isoform, or with tags, fused parts or gaps W22E W22E) above, with E11W, R108A counted along it
Sequence of human CD33 extracellular region Y50L (P20138 other isoform, or with tags, fused parts or gaps Y50L Y50L): as the sequence (P20138 other isoform, or with tags, fused parts or gaps W22E W22E) above, with E11W, Y39L counted along it
Sequence of human CD33 extracellular region F21H (P20138 other isoform, or with tags, fused parts or gaps F21H F21H): as the sequence (P20138 other isoform, or with tags, fused parts or gaps W22E W22E) above, with F10H, E11W counted along it
Sequence of human CD33 extracellular region Y50H (P20138 other isoform, or with tags, fused parts or gaps Y50H Y50H): as the sequence (P20138 other isoform, or with tags, fused parts or gaps W22E W22E) above, with E11W, Y39H counted along it
Sequence of human CD33 extracellular region F21Q (P20138 other isoform, or with tags, fused parts or gaps F21Q F21Q): as the sequence (P20138 other isoform, or with tags, fused parts or gaps W22E W22E) above, with F10Q, E11W counted along it
Sequence of human CD33 extracellular region W22K (P20138 other isoform, or with tags, fused parts or gaps W22K W22K): as the sequence (P20138 other isoform, or with tags, fused parts or gaps W22E W22E) above, with E11K counted along it
Sequence of human CD33 extracellular region F21S_W22R (P20138 other isoform, or with tags, fused parts or gaps F21S W22R F21S W22R): as the sequence (P20138 other isoform, or with tags, fused parts or gaps W22E W22E) above, with F10S, E11R counted along it
Sequence of human CD33 extracellular region W22T (P20138 other isoform, or with tags, fused parts or gaps W22T W22T): as the sequence (P20138 other isoform, or with tags, fused parts or gaps W22E W22E) above, with E11T counted along it

Binder | % WT binding [1] | % WT binding [2] | % WT binding [3] | % WT binding [4] | % WT binding [5] | % WT binding [6] | % WT binding [7] | % WT binding [8] | % WT binding [9] | % WT binding [10] | % WT binding [11] | % WT binding [12] | % WT binding [13] | % WT binding [14] | % WT binding [15] | % WT binding [16] | % WT binding [17] | % WT binding [18] | % WT binding [19] | % WT binding [20] | further results
B1 | 0% | 6.34% | 88.4% | 84.4% | 0% | 0% | 55% | 118% | 111% | 3.39% | 0% | 74% | 64.8% | 34.4% | 76.4% | 0% | 0% | 100% | 0% | 74.4% | % WT binding [21]: 0%
B2 | 108% | 96.5% | 102% | 0% | 113% | 89% | 112% | 95% | 28% | 87.9% | 78.3% | 21.8% | 80% | 84.1% | 5.75% | 84.2% | 110% | 100% | 80% | 25.3% | % WT binding [21]: 82.8%
